# Results from publication PMC314469, “Protein Interaction Networks by Proteome Peptide Scanning” (PLoS Biology, 2004).
# T1: Boi1 SH3 (BOI1_YEAST), P38041
# T1 chain: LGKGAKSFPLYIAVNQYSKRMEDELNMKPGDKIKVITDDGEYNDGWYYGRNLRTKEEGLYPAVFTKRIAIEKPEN
# T2: Rvs167 SH3 (RV167_YEAST), P39743
# T2 chain: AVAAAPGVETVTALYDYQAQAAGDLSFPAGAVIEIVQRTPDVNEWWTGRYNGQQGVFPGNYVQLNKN
# T3: Yhr016c SH3 (YSC84_YEAST), P32793
# T3 chain: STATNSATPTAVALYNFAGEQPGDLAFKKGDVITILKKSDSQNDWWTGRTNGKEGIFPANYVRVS
# T4: Yfr024 SH3 (LSB3_YEAST), P43603
# T4 chain: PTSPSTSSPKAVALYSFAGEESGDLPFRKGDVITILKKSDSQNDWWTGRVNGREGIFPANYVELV
# T5: Boi2 SH3 (BOI2_YEAST), P39969
# T5 chain: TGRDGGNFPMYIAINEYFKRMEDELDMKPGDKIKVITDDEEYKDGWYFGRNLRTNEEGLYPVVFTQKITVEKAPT
# Molecular target: T1, Boi1 SH3 (BOI1_YEAST), P38041
# Experiment: SPOT array
row,Binder,"normalised SPOT signal, Boehringer light units (BLU); mean over the file's lines of this peptide"
1,FKMPKKPQRSKEEV [YOR243C 86-99],97.7
2,FPYPGNPLKIINYE [YGR233C 862-875],125
3,FFQPEYPVRMEPDL [YLR128W 194-207],57.9
4,FPDPNNPSKVQIRM [YAL051W 375-388],103
5,FTAPPVPTKKKSKN [YDR517W 316-329],346
6,FRFPRLPQKKKEEL [YGL130W 106-119],105
7,FISPHLPMKGRLVL [YGR068C 471-484],231
8,FHDPILPRRTSTFL [YHL028W 526-539],9870
9,FGTPVAPTRTLSRK [YOR070C 179-192],3280
10,FQPPPKPFRRSQSS [YBR108W 657-670],800
11,FKAPTNPRKVYSKR [YMR035W 79-92],80.9
12,FSKPQEPVKAEEAE [YCR088W 393-406],76.7
13,FPYPFKPSRVGVKY [YGL131C 440-453],178
14,FPFPTPPDRVALSK [YMR128W 865-878],52.4
15,FFDPESPNKGKLIL [YPL269W 491-504],63.1
16,FFHPAIPLKNAAPF [YER066C-A 112-125],154
17,FLPPPKPFRHTETK [YBR108W 587-600],295
18,FREPDLPRKGLLED [YJR054W 476-489],133
19,FLLPNLPMRTFKEI [YIL105C 444-457],218
20,FNGPEPPIKRLKKA [YNL286W 148-161],255
21,FLSPGKPSKGTSLH [YML005W 163-176],96.5
22,FLQPVDPVKLDIPF [YLR399C 173-186],92.6

# Molecular target: T2, Rvs167 SH3 (RV167_YEAST), P39743
# Experiment: SPOT array
row,Binder,"normalised SPOT signal, Boehringer light units (BLU); mean over the file's lines of this peptide"
1,FKMPKKPQRSKEEV [YOR243C 86-99],166
2,FPYPGNPLKIINYE [YGR233C 862-875],87
3,FFQPEYPVRMEPDL [YLR128W 194-207],0
4,FPDPNNPSKVQIRM [YAL051W 375-388],28
5,FTAPPVPTKKKSKN [YDR517W 316-329],86.4
6,FRFPRLPQKKKEEL [YGL130W 106-119],1200
7,FISPHLPMKGRLVL [YGR068C 471-484],68.3
8,FHDPILPRRTSTFL [YHL028W 526-539],6840
9,FGTPVAPTRTLSRK [YOR070C 179-192],398
10,FQPPPKPFRRSQSS [YBR108W 657-670],8580
11,FKAPTNPRKVYSKR [YMR035W 79-92],33.7
12,FSKPQEPVKAEEAE [YCR088W 393-406],27.2
13,FPYPFKPSRVGVKY [YGL131C 440-453],118
14,FPFPTPPDRVALSK [YMR128W 865-878],114
15,FFDPESPNKGKLIL [YPL269W 491-504],61.6
16,FFHPAIPLKNAAPF [YER066C-A 112-125],22.5
17,FLPPPKPFRHTETK [YBR108W 587-600],1190
18,FREPDLPRKGLLED [YJR054W 476-489],33.2
19,FLLPNLPMRTFKEI [YIL105C 444-457],8120
20,FNGPEPPIKRLKKA [YNL286W 148-161],70.5
21,FLSPGKPSKGTSLH [YML005W 163-176],58.9
22,FLQPVDPVKLDIPF [YLR399C 173-186],56.8

# Molecular target: T3, Yhr016c SH3 (YSC84_YEAST), P32793
# Experiment: SPOT array
row,Binder,"normalised SPOT signal, Boehringer light units (BLU); mean over the file's lines of this peptide"
1,FKMPKKPQRSKEEV [YOR243C 86-99],2660
2,FPYPGNPLKIINYE [YGR233C 862-875],0
3,FFQPEYPVRMEPDL [YLR128W 194-207],210
4,FPDPNNPSKVQIRM [YAL051W 375-388],122
5,FTAPPVPTKKKSKN [YDR517W 316-329],216
6,FRFPRLPQKKKEEL [YGL130W 106-119],1370
7,FISPHLPMKGRLVL [YGR068C 471-484],301
8,FHDPILPRRTSTFL [YHL028W 526-539],42100
9,FGTPVAPTRTLSRK [YOR070C 179-192],269
10,FQPPPKPFRRSQSS [YBR108W 657-670],51000
11,FKAPTNPRKVYSKR [YMR035W 79-92],143
12,FSKPQEPVKAEEAE [YCR088W 393-406],773
13,FPYPFKPSRVGVKY [YGL131C 440-453],260
14,FPFPTPPDRVALSK [YMR128W 865-878],358
15,FFDPESPNKGKLIL [YPL269W 491-504],129
16,FFHPAIPLKNAAPF [YER066C-A 112-125],288
17,FLPPPKPFRHTETK [YBR108W 587-600],25000
18,FREPDLPRKGLLED [YJR054W 476-489],116
19,FLLPNLPMRTFKEI [YIL105C 444-457],8100
20,FNGPEPPIKRLKKA [YNL286W 148-161],42.4
21,FLSPGKPSKGTSLH [YML005W 163-176],243
22,FLQPVDPVKLDIPF [YLR399C 173-186],117

# Molecular target: T4, Yfr024 SH3 (LSB3_YEAST), P43603
# Experiment: SPOT array
row,Binder,"normalised SPOT signal, Boehringer light units (BLU); mean over the file's lines of this peptide"
1,FKMPKKPQRSKEEV [YOR243C 86-99],7880
2,FPYPGNPLKIINYE [YGR233C 862-875],49.4
3,FFQPEYPVRMEPDL [YLR128W 194-207],1060
4,FPDPNNPSKVQIRM [YAL051W 375-388],98.1
5,FTAPPVPTKKKSKN [YDR517W 316-329],9160
6,FRFPRLPQKKKEEL [YGL130W 106-119],19500
7,FISPHLPMKGRLVL [YGR068C 471-484],1540
8,FHDPILPRRTSTFL [YHL028W 526-539],44800
9,FGTPVAPTRTLSRK [YOR070C 179-192],5160
10,FQPPPKPFRRSQSS [YBR108W 657-670],45100
11,FKAPTNPRKVYSKR [YMR035W 79-92],267
12,FSKPQEPVKAEEAE [YCR088W 393-406],276
13,FPYPFKPSRVGVKY [YGL131C 440-453],2790
14,FPFPTPPDRVALSK [YMR128W 865-878],834
15,FFDPESPNKGKLIL [YPL269W 491-504],68
16,FFHPAIPLKNAAPF [YER066C-A 112-125],298
17,FLPPPKPFRHTETK [YBR108W 587-600],36400
18,FREPDLPRKGLLED [YJR054W 476-489],1350
19,FLLPNLPMRTFKEI [YIL105C 444-457],15300
20,FNGPEPPIKRLKKA [YNL286W 148-161],625
21,FLSPGKPSKGTSLH [YML005W 163-176],437
22,FLQPVDPVKLDIPF [YLR399C 173-186],0

# Molecular target: T5, Boi2 SH3 (BOI2_YEAST), P39969
# Experiment: SPOT array
row,Binder,"normalised SPOT signal, Boehringer light units (BLU); mean over the file's lines of this peptide"
1,FKMPKKPQRSKEEV [YOR243C 86-99],244
2,FPYPGNPLKIINYE [YGR233C 862-875],39
3,FFQPEYPVRMEPDL [YLR128W 194-207],76
4,FPDPNNPSKVQIRM [YAL051W 375-388],21.5
5,FTAPPVPTKKKSKN [YDR517W 316-329],44.8
6,FRFPRLPQKKKEEL [YGL130W 106-119],172
7,FISPHLPMKGRLVL [YGR068C 471-484],20.4
8,FHDPILPRRTSTFL [YHL028W 526-539],87.1
9,FGTPVAPTRTLSRK [YOR070C 179-192],308
10,FQPPPKPFRRSQSS [YBR108W 657-670],308
11,FKAPTNPRKVYSKR [YMR035W 79-92],38.8
12,FSKPQEPVKAEEAE [YCR088W 393-406],23.9
13,FPYPFKPSRVGVKY [YGL131C 440-453],81.9
14,FPFPTPPDRVALSK [YMR128W 865-878],103
15,FFDPESPNKGKLIL [YPL269W 491-504],149
16,FFHPAIPLKNAAPF [YER066C-A 112-125],9.4
17,FLPPPKPFRHTETK [YBR108W 587-600],67.3
18,FREPDLPRKGLLED [YJR054W 476-489],41.4
19,FLLPNLPMRTFKEI [YIL105C 444-457],66.4
20,FNGPEPPIKRLKKA [YNL286W 148-161],11.4
21,FLSPGKPSKGTSLH [YML005W 163-176],34.6
22,FLQPVDPVKLDIPF [YLR399C 173-186],24.4
